The results in this text go back to article PMC7387707, “An (R)-Selective Transaminase From Thermomyces stellatus: Stabilizing the Tetrameric Form” (Frontiers in Bioengineering and Biotechnology, 2020).

By Km is commonly meant the substrate concentration at which the rate is half of its maximum. By kcat is commonly meant the maximal rate divided by the concentration of active sites. One may read the kcat/Km as the turnover number divided by the Michaelis constant. As a reminder, the stoichiometry N is a count of units in the complex or per binding partner. The Ki is a dissociation constant, usually derived from enzyme kinetics or from competition with a known ligand.

In data set [1] the test system is CC(=O)C(=O)O. As to the kind of experiment: acetophenone formation, plate reader; substrate-inhibition fit. The data set is classed as biochemical, Microascus stellatus. The settings on record: 2.5 mM RMBA, 0.25% DMSO, 30 °C, pH 8. An excerpt: (§1) acetophenone formation, plate reader; substrate-inhibition fit on TsRTA
Data set [2] concerns C[C@@H](N)c1ccccc1. Described as above. The data set is classed as biochemical, Microascus stellatus. To be noted: 10 mM pyruvate, 1% DMSO, 30 °C, pH 8.
Source text: as §1

For data set [3], the target named is TsRTA_G205C (Thermomyces stellatus). In words: SEC; Superdex 200 10/300 GL; 50 mM potassium phosphate, 100 mM NaCl, 0.1 mM PLP, pH 8; ca 2 mg/mL protein; injected directly after preparation or after incubation (ambient temperature; or 10 mM β-mercaptoethanol at 4°C for 2 days, dialysis, overnight aeration); shares of tetramer, dimer and monomer; 0-1,200 mM NaCl had no effect on the tetramer. Background: SEC sorts molecules by how far they enter the pores of the column.

In data set [4] the test system is C[C@@H](N)c1ccccc1. In words: acetophenone formation, plate reader; substrate-inhibition fit. The data set is classed as biochemical, Aspergillus terreus. To be noted: 10 mM pyruvate, 1% DMSO, 30 °C, pH 8. An excerpt: (§2) acetophenone formation, plate reader; substrate-inhibition fit on AtRTA
Another data set deals with T1, AtRTA (Aspergillus terreus, UniProt Q0C8G1).
T1 construct: gene ATEG_10023; synthetic gene (Johnson Matthey) in pCH93b (pET22b(+)-derived, TEV site added), E. coli BL21 STAR (DE3), Ni-IMAC
The data set is described as above. The data set is classed as biochemical. The settings on record: 30 °C, pH 8.
Source text: as §2

Data set [5] addresses T2, TsRTA (Microascus stellatus, UniProt Z9EHZ8S8K6).
T2 construct: codon-optimised synthetic gene in pCH93b (pET22b(+)-derived, TEV site added), E. coli BL21 STAR (DE3), Ni-IMAC, C-terminal His-tag; structure residues 1-319 seen, 320-334 plus tag disordered
T2 sequence (Z9EHZ8S8K6 10-343): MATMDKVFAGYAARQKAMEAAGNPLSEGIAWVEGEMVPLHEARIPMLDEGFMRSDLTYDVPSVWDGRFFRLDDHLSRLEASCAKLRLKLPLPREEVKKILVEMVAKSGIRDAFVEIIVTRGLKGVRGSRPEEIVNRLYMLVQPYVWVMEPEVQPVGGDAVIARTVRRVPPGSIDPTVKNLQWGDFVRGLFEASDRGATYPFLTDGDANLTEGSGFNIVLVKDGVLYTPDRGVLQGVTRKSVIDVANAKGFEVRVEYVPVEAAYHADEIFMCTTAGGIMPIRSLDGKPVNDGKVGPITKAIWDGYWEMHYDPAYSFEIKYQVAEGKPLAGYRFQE
The description is as above. To be noted: 30 °C, pH 8. The data set is classed as biochemical.
Source text: as §1

Data set [6] in a line: SEC; Superdex 200 10/300 GL; 50 mM potassium phosphate, 100 mM NaCl, 0.1 mM PLP, pH 8; ca 2 mg/mL protein; injected directly after preparation or after incubation (ambient temperature; or 10 mM β-mercaptoethanol at 4°C for 2 days, dialysis, overnight aeration); shares of tetramer, dimer and ….
Data set [7] relates to CC(=O)C(=O)O. In words: purified protein. To be noted: 2.5 mM RMBA, 0.25% DMSO, 30 °C, pH 8.
In data set [8] the test system is C[C@@H](N)c1ccccc1. In words: purified protein. The settings on record: 10 mM pyruvate, 1% DMSO, 30 °C, pH 8.
Another data set has as its system Q0C8G1. The settings on record: SEC.
Data set [9] has as its system CC(=O)C(=O)O. As to the kind of experiment: acetophenone formation, plate reader; substrate-inhibition fit. The data set is classed as biochemical, Aspergillus terreus. The settings on record: 2.5 mM RMBA, 0.25% DMSO, 30 °C, pH 8.
Source text: as §2

In data set [10] the target is T2, TsRTA. In words: X-ray structure, […] Å. The data set is classed as binding. To be noted: covalent (imine with K178); active site.
The target in data set [11] is AtRTA_G207C (Aspergillus terreus) (UniProt Q0C8G1). As to the kind of experiment: SEC.
Data set [12] has the same target.
The target in data set [13] is (R)-selective transaminase from Thermomyces stellatus (TsRTA), wild type (Thermomyces stellatus). As to the kind of experiment: SEC; Superdex 200 10/300 GL; 50 mM potassium phosphate, 100 mM NaCl, 0.1 mM PLP, pH 8; ca 2 mg/mL protein; injected directly after preparation or after incubation (ambient temperature; or 10 mM β-mercaptoethanol at 4°C for 2 days, dialysis, overnight aeration); shares of tetramer, dimer and monomer; 0-1,200 mM NaCl had no effect on the tetramer.

For data set [14], the target named is T3, TsRTA (Microascus stellatus, UniProt Z9EHZ8S8K6, G205C).
T3 construct: codon-optimised synthetic gene in pCH93b (pET22b(+)-derived, TEV site added), E. coli BL21 STAR (DE3), Ni-IMAC, C-terminal His-tag; structure residues 1-319 seen, 320-334 plus tag disordered
T3 sequence (Z9EHZ8S8K6 10-343 G205C): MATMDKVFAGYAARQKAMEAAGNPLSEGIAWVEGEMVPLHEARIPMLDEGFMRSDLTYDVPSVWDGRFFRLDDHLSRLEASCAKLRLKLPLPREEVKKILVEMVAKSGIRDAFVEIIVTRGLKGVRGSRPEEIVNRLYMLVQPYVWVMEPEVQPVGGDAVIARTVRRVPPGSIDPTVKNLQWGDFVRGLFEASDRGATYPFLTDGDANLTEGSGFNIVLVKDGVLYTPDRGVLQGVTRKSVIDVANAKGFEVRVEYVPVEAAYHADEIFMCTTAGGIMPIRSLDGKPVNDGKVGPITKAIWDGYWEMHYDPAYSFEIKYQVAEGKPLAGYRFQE
In words: acetophenone formation, plate reader; substrate-inhibition fit. The data set is classed as biochemical. The settings on record: 10 mM pyruvate, 1% DMSO, 30 °C, pH 8.
Source text: as §1

Data set [15] concerns the molecule itself. In words: SEC; Superdex 200 10/300 GL; 50 mM potassium phosphate, 100 mM NaCl, 0.1 mM PLP, pH 8; ca 2 mg/mL protein; injected directly after preparation or after incubation (ambient temperature; or 10 mM β-mercaptoethanol at 4°C for 2 days, dialysis, overnight aeration); shares of tetramer, dimer and monomer; 0-1,200 mM NaCl had no effect on the tetramer.

Regarding TsRTA (Microascus stellatus), in the data set on CC(=O)C(=O)O [1], the Km turned out to be 570 ± 30 µM, the kcat was 2.21 ± 0.04 s⁻¹ and the kcat/Km turned out to be 3900 ± 100 M⁻¹ s⁻¹. Besides, in the data set on C[C@@H](N)c1ccccc1 [2], the Km was determined as 130 ± 10 µM, the kcat was 1.82 ± 0.03 s⁻¹ and the kcat/Km is 13800 ± 600 M⁻¹ s⁻¹.
On to TsRTA_G205C (enzyme), for which, in [3], the percent dimer (after β-mercaptoethanol, dialysis and aeration) was 11%; the percent dimer (immediately following purification) turned out to be 42%; the percent monomer (immediately following purification) was determined as 2%; the percent tetramer (after β-mercaptoethanol, dialysis and aeration) came to 89%. In data set [3], the percent tetramer (immediately following purification) turned out to be 55% and the stoichiometry N was found to be 4.
On to AtRTA (Aspergillus terreus NIH2624), for which, in the data set with C[C@@H](N)c1ccccc1 [4], the Michaelis-Menten constant (Km) amounted to 170 ± 10 µM, the kcat was 2.24 ± 0.04 s⁻¹ and the specificity constant (kcat/Km) stood at 13300 ± 500 M⁻¹ s⁻¹.
Consider `CC(=O)C(=O)O` [Pyruvate], for which the “Ki” value is reported as 52 ± 4 mM on AtRTA (2.5 mM RMBA, 0.25% DMSO) and 39 ± 5 mM at TsRTA [5] (2.5 mM RMBA, 0.25% DMSO).
Turning to TsRTA_G205C, in data set [6], the “percent tetramer (sample with a lower proportion of tetramer used for the thermostability assay)” value is on record as “TsRTA_G205C: 75% tetramer”.
Take TsRTA (Microascus stellatus; G205C): in the data set with CC(=O)C(=O)O [7], the Michaelis constant (Km) came to 420 ± 10 µM, the turnover number (kcat) was 1.33 ± 0.02 s⁻¹ and the kcat/Km was determined as 3200 ± 100 M⁻¹ s⁻¹. Moreover, in the data set with C[C@@H](N)c1ccccc1 [8], the Km is 120 ± 10 µM, the kcat was determined as 1.35 ± 0.03 s⁻¹ and the kcat/Km is 11000 ± 600 M⁻¹ s⁻¹.
Consider AtRTA_G207C, for which the “percent tetramer (sample with a lower proportion of tetramer used for the thermostability assay)” value in the data set with Q0C8G1 is reported as “AtRTA_G207C: 55% tetramer”.
On to “AtRTA (Aspergillus terreus NIH2624; G207C)”, for which, in the data set with CC(=O)C(=O)O [9], the Michaelis-Menten constant (Km) worked out at 190 ± 10 µM, the kcat turned out to be 1.71 ± 0.03 s⁻¹ and the kcat/Km was found to be 9200 ± 500 M⁻¹ s⁻¹. Also, in the data set with C[C@@H](N)c1ccccc1 [4], the Km turned out to be 300 ± 20 µM, the kcat was found to be 1.96 ± 0.05 s⁻¹ and the kcat/Km is 6400 ± 300 M⁻¹ s⁻¹.
As to `Cc1ncc(COP(=O)(O)O)c(C=O)c1O` [PLP], at TsRTA [10], the “X-ray structure, 2.2 Å” value was “The active site pocket houses a single PLP molecule, covalently bound to each TsRTA chain”.
Take “AtRTA_G207C (from UniProt Q0C8G1 1-325) (enzyme)”: in data set [11], the percent dimer (after β-mercaptoethanol, dialysis and aeration) is 5%; the percent dimer (immediately following purification) came to 19%; the percent dimer and tetramer (after β-mercaptoethanol pre-treatment) came to 94%; the percent dimer and tetramer (before β-mercaptoethanol pre-treatment) is 57%. In data set [11], this molecule came in with a percent monomer (after β-mercaptoethanol, dialysis and aeration) of 6%; a percent monomer (immediately following purification) of 52%; a percent tetramer (after β-mercaptoethanol, dialysis and aeration) of 89%; a percent tetramer (immediately following purification) of 28%. For the same molecule, the stoichiometry N in data set [11] worked out at 4. For the same molecule, the increase in enzyme activity after β-mercaptoethanol pre-treatment in data set [12] was found to be 65%.
As to “(R)-selective transaminase from Thermomyces stellatus (TsRTA), wild type (enzyme)”, in [13], the percent dimer turned out to be 10%, the percent tetramer was found to be 90% and the stoichiometry N turned out to be 4.
On to `C[C@@H](N)c1ccccc1` [RMBA], for which the “Ki” value on AtRTA (10 mM pyruvate, 1% DMSO) is 19 ± 1 mM; at TsRTA [14] it was 20 ± 2 mM; on TsRTA [5] (10 mM pyruvate, 1% DMSO) it was 15 ± 1 mM.

B1: (R)-selective transaminase from Aspergillus terreus (AtRTA), wild type (enzyme)
chain: MASMDKVFAGYAARQAILESTETTNPFAKGIAWVEGELVPLAEARIPLLDQGFMHSDLTYDVPSVWDGRFFRLDDHITRLEASCTKLRLRLPLPRDQVKQILVEMVAKSGIRDAFVELIVTRGLKGVRGTRPEDIVNNLYMFVQPYVWVMEPDMQRVGGSAVVARTVRRVPPGAIDPTVKNLQWGDLVRGMFEAADRGATYPFLTDGDAHLTEGSGFNIVLVKDGVLYTPDRGVLQGVTRKSVINAAEAFGIEVRVEFVPVELAYRCDEIFMCTTAGGIMPITTLDGMPVNGGQIGPITKKIWDGYWAMHYDAAYSFEIDYNERN
notes: the forward primer holds the ATG; Same vector as TsRTA, whose His-tag is C-terminal; also called omega transaminase from Aspergillus terreus; source: E. coli BL21 STAR (DE3), purified (IMAC)
B1: in data set [15], the “stoichiometry N” value was 4.
